From patent US20060199195A1 (CEDARS SINAI MEDICAL CENTER, published 2006)

B1: CD44 (conserved cytoplasmic domain, last 70 residues) (other, UniProt P16070 673-742, looked up, not shown: large carriers)
chain: RRRCGQKKKLVINSGNGAVEDRKPSGLNGEASKSQEMVHLVNKESSETPDQFMTADETRNLQNVDMKIGV
notes: domain: conserved cytoplasmic domain, last 70 residues; Unrelated control protein in the two-hybrid filter assay
B2: GAL4 activation domain alone (pGADGH, no insert) (other, UniProt P04386 768-881, looked up)
chain: ANFNQSGNIADSSLSFTFTNSSNGPNLITTQTNSQALSQPIASSNVHDNFMNNEITASKIDDGNNSKPLSPGWTDQTAYNAFGITTGMFNTTTMDDVYNYLFDDEDTPPNPKKE
notes: Negative control
B3: MBP fused with β-spectrin residues 1885-1967 (other, UniProt Q01082 1885-1967, looked up, not shown: large carriers)
chain: RENEVLEAWKSLLDACESRRVRLVDTGDKFRFFSMVRDLMLWMEDVIRQIEAQEKPRDVSSVELLMNNHQGIKAEIDARNDSF
B4: glutathione-S-transferase fusion of the C-terminal domain of schwannomin isoform 1 (GSTNF2CL, schwannomin residues 469-595) (other)
chain: KQKLLEIATKPTYPPMNPIPAPLPPDIPSFNLIGDSLSFDFKDTDMKRLSMEIEKEKVEYMEKSKHLQEQLNELKTEIEALKLKERETALDILHNENSDRGGSSKHNTIKKLTLQSAKSRVAFFEEL
notes: Expressed in E. coli DH5α, purified on Sepharose 4B-glutathione; predicted 40.0 kDa; also called isoform 1 C-terminal domain GST fusion; not shown: Glutathione-S-transferase of pGEX-5X-1 and its linker
B5: MBP fused with β-spectrin residues 1885-1992 (other, UniProt Q01082 1885-1992, looked up, not shown: large carriers)
chain: RENEVLEAWKSLLDACESRRVRLVDTGDKFRFFSMVRDLMLWMEDVIRQIEAQEKPRDVSSVELLMNNHQGIKAEIDARNDSFTTCIELGKSLLARKHYASEEIKEKL

Columns and labels:
[1] = molecular target: T1, full-length schwannomin isoform 1 fused to the GAL4 binding domain (pGBT9NF2, residues 1-595) (Homo sapiens (Human), UniProt P35240 1-595); test: yeast two-hybrid, β-galactosidase filter assay
T1 construct: Yeast two-hybrid bait; also called pGPT9NF2; GAL4-NF2
T1 sequence: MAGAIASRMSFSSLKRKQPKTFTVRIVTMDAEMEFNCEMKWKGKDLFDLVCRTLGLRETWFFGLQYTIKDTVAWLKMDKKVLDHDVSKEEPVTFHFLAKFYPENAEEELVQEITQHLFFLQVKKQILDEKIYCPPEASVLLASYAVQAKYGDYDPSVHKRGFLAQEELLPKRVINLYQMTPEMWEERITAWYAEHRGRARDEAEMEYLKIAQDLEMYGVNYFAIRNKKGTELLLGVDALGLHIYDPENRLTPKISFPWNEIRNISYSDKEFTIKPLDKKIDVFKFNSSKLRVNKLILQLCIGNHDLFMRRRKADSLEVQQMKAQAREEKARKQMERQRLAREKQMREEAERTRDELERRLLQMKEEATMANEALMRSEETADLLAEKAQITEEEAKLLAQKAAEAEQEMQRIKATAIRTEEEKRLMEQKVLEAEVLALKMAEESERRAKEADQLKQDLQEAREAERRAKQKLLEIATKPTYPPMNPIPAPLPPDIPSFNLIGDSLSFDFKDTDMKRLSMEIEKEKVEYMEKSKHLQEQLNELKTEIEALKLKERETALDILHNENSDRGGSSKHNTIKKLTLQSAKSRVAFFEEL
Excerpt: Double-transformant pGBT9NF2I2CL and pGAD10Sp is weakly positive for β-galactosidase in the filter assay; the trace blue color is not visible in the photo. Right: Histogram illustrating results of semiquantitative liquid assays for β-galactosidase activity (Poullet and Tamanio, Methods in Enzymol. 255:488-497 (1995)). Three controls are included: pGBT9NF1 and pGADGHRas, negative pGBT9NF2 and PGADGH, negative pGBT9 and pGAD105p. β-Galactosidase units=1000×[OD₄₂₀/(OD₆₀₀×times×culture volume)]. Bars show mean and standard deviation of three replicate clones from one transformation. Except for pGBT9NF2C and pGBT9NF2I2C, liquid assays for each construct were conducted at the same time, and for all constructs, the same clones were used in filter assays, and results were reproducible. FIG. 1(B) Control β-galactosidase filter assays of indicated double transformants showing high activity for a known positive interaction between NF1 and Ras (Poullet and Tamanio, (1995)), no detectable interaction between GAL4-NF2 and an unrelated protein, CD44 (conserved cytoplasmic domain, last 70 residues), and no detectable interaction between other negative controls. […]

[2] = molecular target: T1, full-length schwannomin isoform 1 fused …; test: yeast two-hybrid, liquid β-galactosidase assay, control
[3] = molecular target: B4; test: pull-down on amylose resin, Western blot
Description: (§1) Purified MBP or MBP fusions were incubated with fresh amylose resin for 5 minutes at room temperature and 2.5 minutes at 4° C. in column buffer (20 mM Tris-HCl, pH 7.4, 200 mM NaCl, 1 mM EDTA, 2 μg/ml aprotinin, 0.5 mg/ml Perfabloc SC), and washed three times with binding buffer (160 mM NaCl, 2.5 mM MgCl₂, 1.5 mM CaCl₂, […], 50 mM hepes, pH 7.4, 1% Triton X-100, 2 μg/ml aprotinin, and 0.5 mg/ml Pefabloc SC). Saturated amylose resin was incubated with equivalent amounts of GSTNF2CL or GSTNF2I2CL for 20 min at 4° C. and washed three times with binding buffer. The quantities were normalized by conducting dot blots of serial dilutions detected with anti-GST antibody (Pharmacia). Western blot analysis was conducted as described using affinity purified rabbit anti-spectrin (Sigma S1515), and anti-schwannomin (Ab5990, recognizes C-terminal domain) polyclonal antibodies (Huynh and Pulst (1996)).
(§2) Glutathione-S-transferase (GST) fusions were purified with the C-terminal domain of schwannomin isoform 1 (GSTNF2CL, schwannomin residues 469-595) or isoform 2 (GSTNF2I2CI, schwannomin residues 469-590). When the MBPSp-amylose resin was incubated with schwannomin-GST fusion proteins, the proteins eluted from the washed resin were recognized by an anti-schwannomin antibody (Ab5990). […]

[4] = molecular target: maltose binding protein (MBP) with no fusion protein (UniProt P0AEX9 27-392 = MBP); test: pull-down on amylose resin, Western blot with Ab5990
Description: as §1, §2

Binder: B1
- binding result [1]: no binding

Binder: B2
- binding result [2]: no binding

Binder: B3
- binding result [3]: no binding

Binder: B4
- binding result [4]: no binding

Binder: B5
- binding result [3]: no binding
